Article PMC5096685, “Characterization of CgHIFα-Like, a Novel bHLH-PAS Transcription Factor Family Member, and Its Role under Hypoxia Stress in the Pacific Oyster Crassostrea gigas”

Tests used:
CgHIFα bHLH-PAS = molecular target: T1, CgHIFα bHLH-PAS (Crassostrea gigas, UniProt B6ZGN4 1-356); assay: EMSA; no ARNT added; positive control; unlabeled Ew 200x competes; anti-His supershift; 10 mM Tris pH 7.5, 50 mM KCl, 1 mM DTT, 50 ng poly(dI-dC) in 20 uL, 20 min at room temperature; details: protein: recombinant; tags: His (pET30a); label: biotin end label (probe)
T1 sequence: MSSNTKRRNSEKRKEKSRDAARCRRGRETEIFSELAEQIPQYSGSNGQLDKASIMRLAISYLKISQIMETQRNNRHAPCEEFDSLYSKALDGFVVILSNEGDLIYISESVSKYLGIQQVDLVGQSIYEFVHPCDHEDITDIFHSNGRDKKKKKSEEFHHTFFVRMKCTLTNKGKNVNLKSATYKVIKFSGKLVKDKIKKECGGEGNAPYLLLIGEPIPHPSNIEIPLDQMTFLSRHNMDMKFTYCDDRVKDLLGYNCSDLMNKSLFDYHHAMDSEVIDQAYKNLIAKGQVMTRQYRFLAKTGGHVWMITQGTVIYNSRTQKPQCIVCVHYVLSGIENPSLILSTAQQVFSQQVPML

[1] = molecular target: T2, CgHIFα-like bHLH-PAS (CgHIFαlike-His) (Crassostrea gigas, UniProt A0A167QPK5 1-385); assay: EMSA; no ARNT added; 1 ug protein, 20 fmol probe, 50 ng poly(dI-dC); unlabeled Ew 200x competes; anti-His supershift; 10 mM Tris pH 7.5, 50 mM KCl, 1 mM DTT, 50 ng poly(dI-dC) in 20 uL, 20 min at room temperature; details: protein: recombinant; tags: His (pET30a); label: biotin end label (probe)
T2 sequence: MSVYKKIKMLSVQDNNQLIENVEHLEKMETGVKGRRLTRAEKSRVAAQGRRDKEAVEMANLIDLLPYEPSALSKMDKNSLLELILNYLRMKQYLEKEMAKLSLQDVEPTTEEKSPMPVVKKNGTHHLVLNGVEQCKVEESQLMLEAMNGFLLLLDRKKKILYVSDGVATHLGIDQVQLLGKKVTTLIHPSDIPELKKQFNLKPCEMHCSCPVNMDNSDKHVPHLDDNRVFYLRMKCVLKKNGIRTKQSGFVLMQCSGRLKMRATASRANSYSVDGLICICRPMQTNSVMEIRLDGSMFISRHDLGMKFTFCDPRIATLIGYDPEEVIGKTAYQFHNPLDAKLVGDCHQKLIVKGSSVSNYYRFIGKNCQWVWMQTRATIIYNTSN

B1: Ew (human EPO HRE probe) (dsDNA)
DNA 1: GCCCTACGTGCTGTCTCA
DNA 2: TGAGACAGCACGTAGGGC
B1: binds (CgHIFα bHLH-PAS); binds [1].
